Laboratory results: patent US8507656B2, “Stabilized angiopoietin-2 antibodies and uses thereof” (MedImmune Limited, priority 2008, dated 2013)
“Also recorded” adds a separate entry of the source.

Experiments:
H460 xenograft tumors = type: in vivo; settings: 3.19.3 10 mg/kg 2×wk i.p., AZD4877 10 mg/kg q4dx2 i.p., combination of both
Procedure: The anti-tumor activity of 3.19.3 was evaluated in combination with AZD4877 in the
H460 xenograft model of lung cancer. H460 cells were cultured in flasks as routine until the cells reached sub-confluence. Cell suspensions containing approximately 3×10E6 cells were injected subcutaneously into the right flank of male NCr nu/nu mice. When the tumor volume reached 200 mm^3, the mice were randomized in treatment groups of 8-10 mice and the treatments were initiated. 3.19.3 (10 mg/kg) in saline was injected intraperitoneally, twice per week for 2 weeks. AZD4877 (10 mg/kg) was administered by intraperitoneal administration following a q4d schedule. The dimensions of each tumor and body weights were measured at least twice per week. The volume of the tumor was calculated as: Volume=Length×(Width)×0.5 (cm^3).

Tie2 = Tie2 (Homo sapiens, UniProt Q02763); settings: Maisonpierre et al., Science 277:55-60 (1997); read-out: affinity (Kd) for Tie2; cited from earlier work
[1] = test system: glucose 6 phosphate isomerase (G6PI) arthritis; test: G6PI arthritis disease model, prophylactic; type: in vivo, male DBA/1J mice; settings: for clinical signs of disease progression (arthritic score) (in words): single agents
[2] = test system: glucose 6 phosphate isomerase (G6PI) arthritis; test: G6PI arthritis disease model, therapeutic; type: in vivo, male DBA/1J mice; settings: after onset of clinical disease, MEDI1/5 alone, etanercept both doses
Procedure: The effect of treatment with MEDI 1/5 with or without etanercept was evaluated following onset of clinical disease in the glucose 6 phosphate isomerase (G6PI) arthritis disease model. G6PI-induced arthritis was induced in male DBA/1J mice and animals dosed therapeutically with test treatments.
Materials and Methods: The mice in this study were prepared similarly as presented in Example 12.
Dosing: This was a rolling admissions study: once an animal reached a clinical score of 3.5 to 5.0, it was randomly assigned to treatment groups (as outlined below) and dosing began. The day of initial dosing became study day 0 for that animal. Treatment groups were similar to those presented in Example 12.
Termination: Study was terminated 12 days post treatment initiation. No further endpoints were assessed on these animals.

[3] = test system: FGF2 mediated angiogenesis; test: FGF2-induced Matrigel plug assay; type: in vivo, athymic mouse
Procedure: The anti-Ang-2 antibody, MEDI1/5 was evaluated for anti-angiogenic effects in a FGF2 (basic FGF)-induced Matrigel™ plug assay. Recombinant murine FGF2 (rmFGF basic; R&D Systems) was pre-mixed with Matrigel™ (reduced growth factor, phenol red-free; Trevigen) at 1 μg/ml. Each 5-6 week old female athymic mouse was subcutaneously implanted with 500 gl of FGF2/Matrigel™ mixture. Antibody MEDI1/5 was administered 10 minutes prior to FGF2/Matrigel™ implantation and continued every three days given intraperitoneal at 1, 10, and 20 mg/kg for a total of 3 doses. The extent of angiogenesis was assessed after 10 days by measuring dextran functioning vessels. Mice were intervenously injected with 100 gl FITC-Dextran (250,000MW; Sigma) at 25 mg/ml in saline. Twenty minutes post FITC-Dextran injection, mice are humanely euthanized and plugs dissected out. Plugs are then placed in lysing matrix tubes A (MP Biomedicals) containing 1 ml of PBS and homogenized on FastPrep machine (MP Biomedicals) for 60 seconds at 6.0 M/S. Samples were then centrifuged at 10,000 rpm for 5 minutes and supernatant collected. 200 μl of each sample (in duplicates) was then placed into a white, clear bottom 96 well plate and FITC output was read on EnVision instrument (Perkin Elmer).
For histology purposes, plugs were harvested and placed into 10% neutral-buffered formalin, processed and then paraffin embedded. The paraffin embedded tissues were then sectioned and stained with hematoxylin and eosin.

Ang-2 = target: T1, Ang-2 (Homo sapiens, UniProt O15123); test: Competitive Tie-2 Fc/Ang2 ELISA; type: binding; settings: competition with immobilized Tie-2; IgG1 or IgG2 format
T1 construct: purchased R & D Systems
T1 sequence (O15123 19-496): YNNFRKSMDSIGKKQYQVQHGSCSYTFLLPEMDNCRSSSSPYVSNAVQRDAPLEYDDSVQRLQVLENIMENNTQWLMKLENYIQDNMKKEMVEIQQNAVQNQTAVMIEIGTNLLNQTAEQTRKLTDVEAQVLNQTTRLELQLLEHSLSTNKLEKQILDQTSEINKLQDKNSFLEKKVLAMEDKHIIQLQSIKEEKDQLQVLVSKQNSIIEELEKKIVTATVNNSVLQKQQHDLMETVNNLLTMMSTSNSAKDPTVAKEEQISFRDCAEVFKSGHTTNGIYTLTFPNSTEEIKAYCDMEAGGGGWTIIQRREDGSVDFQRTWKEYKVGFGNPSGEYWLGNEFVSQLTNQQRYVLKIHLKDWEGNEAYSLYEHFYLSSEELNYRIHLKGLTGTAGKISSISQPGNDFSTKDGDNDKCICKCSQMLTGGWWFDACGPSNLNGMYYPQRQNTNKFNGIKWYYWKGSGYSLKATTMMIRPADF
Procedure: In this example the Ang-2 antibody, 3.19.3, and a modified 3.19.3 antibody comprising a C49T (MEDI1/5) substitution were analyzed for Ang-2 binding in a competitive ELISA format assay.
Competitive Tie-2 Fc/Ang2 ELISA: Maxisorp ELISA plates (Nunc, Rochester, N.Y.) were coated with 100 μl of 4 μg/ml Tie-2 Fc (R & D Systems, Minneapolis, Minn.) in 0.1M carbonate buffer pH 9.4 (Pierce, Rockford, Ill.) and incubated overnight at 4° C. The following day, plates were blocked for 1 hour at room temperature with 200 μl of phosphate buffered saline (PBS) (Invitrogen, Carlsbad, Calif.) containing 0.5% bovine serum albumin (BSA) (Sigma, St. Louis, Mo.) and 0.1% Tween-20 (Sigma, St. Louis, Mo.). Plates were washed 3 times with wash buffer (PBS containing 0.05% Tween-20). 50 μl of 11-point serial tertiary dilutions (30 μg/ml high concentration) of 3.19.3 or modified anti-Ang2 antibody were plated, with PBS as a negative control. For antibody capture, 50 μl of 200 ng/ml Biotin Ang2 (R & D Systems, Minneapolis, Minn.) were added and plates were incubated for 2 hours at room temperature. Plates were washed 3 times with wash buffer. Following the wash, 100 ul of 1:5000 streptavidin HRP (Pierce, Rockford, Ill.) dilution in wash buffer were added and incubated for 1 hour at room temperature. […] Optical densities were measured at 450 nm with a microplate reader (Molecular Devices, Sunnyvale, Calif.).

retinal angiogenesis = test: Retinal vascularization in mouse pups; type: in vivo, CD1 pups
Procedure: […] At p10, pups were anesthetized with isoflurane and then perfused with 12.5 mg/ml FITC-dextran (Vector Labs). A small slit was made in the cornea and the entire eye was removed from the optic cup before placing into 10% neutral buffered formalin. After 1 hour fixation in formalin, eyes were briefly rinsed in PBS and then placed in a dish of PBS for dissection. Retinas were carefully dissected and cut into a clover leaf formation prior to mounting onto a glass slide with Vectashield (Vector Labs). Images of flatmounts were examined and acquired using fluorescence microscopy (Nikon) with attached digital camera system.

Tie2, sequence (Q02763 23-1124, species assumed): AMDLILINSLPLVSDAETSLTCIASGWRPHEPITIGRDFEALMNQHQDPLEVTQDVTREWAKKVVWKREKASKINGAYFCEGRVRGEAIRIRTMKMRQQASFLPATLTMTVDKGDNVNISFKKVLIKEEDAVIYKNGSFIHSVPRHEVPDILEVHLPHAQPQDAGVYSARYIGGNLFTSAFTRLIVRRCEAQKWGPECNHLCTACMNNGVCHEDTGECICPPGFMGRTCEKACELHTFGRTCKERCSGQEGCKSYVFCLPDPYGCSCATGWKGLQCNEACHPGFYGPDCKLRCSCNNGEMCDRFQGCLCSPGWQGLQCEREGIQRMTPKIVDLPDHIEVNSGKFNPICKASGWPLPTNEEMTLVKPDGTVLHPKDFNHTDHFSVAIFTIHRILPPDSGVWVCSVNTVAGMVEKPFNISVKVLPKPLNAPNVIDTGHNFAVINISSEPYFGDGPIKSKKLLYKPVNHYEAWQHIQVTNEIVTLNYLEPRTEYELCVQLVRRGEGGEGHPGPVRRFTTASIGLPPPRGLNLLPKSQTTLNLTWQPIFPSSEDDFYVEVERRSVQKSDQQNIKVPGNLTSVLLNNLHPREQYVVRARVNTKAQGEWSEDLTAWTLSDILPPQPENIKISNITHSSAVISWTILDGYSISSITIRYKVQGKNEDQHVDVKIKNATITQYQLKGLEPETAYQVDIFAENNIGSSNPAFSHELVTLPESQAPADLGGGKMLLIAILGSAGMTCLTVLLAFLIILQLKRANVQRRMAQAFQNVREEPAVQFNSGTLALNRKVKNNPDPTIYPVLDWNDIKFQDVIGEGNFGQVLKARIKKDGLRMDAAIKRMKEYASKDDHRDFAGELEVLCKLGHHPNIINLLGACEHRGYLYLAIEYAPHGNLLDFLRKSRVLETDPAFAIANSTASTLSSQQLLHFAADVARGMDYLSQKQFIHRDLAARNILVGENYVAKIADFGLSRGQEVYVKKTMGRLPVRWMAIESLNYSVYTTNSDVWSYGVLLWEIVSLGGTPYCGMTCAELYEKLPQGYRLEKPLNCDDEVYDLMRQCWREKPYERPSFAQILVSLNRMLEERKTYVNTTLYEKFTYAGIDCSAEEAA

In the case of Cc1ccc(C(=O)N(CCCN)C(c2nc3snc(C)c3c(=O)n2Cc2ccccc2)C(C)C)cc1 (centres unmarked) [AZD4877], the “% tumor growth inhibition” value (H460 xenograft tumors) is reported as 50%.

In the case of “Ang-2: angiopoietin, ligand of Tie2; antigen of the antibodies”, the Kd (Tie2) is given as 3 nM.

In the case of etanercept, the “% Disease free joints” value ([1]; 1 mg/kg etanercept, 1 mg/kg) is reported as 22%, the “% Disease free joints” value ([1]; 4 mg/kg etanercept, 4 mg/kg) is reported as 53% and the “% Disease free joints” value ([1]; 4 mg/kg etanercept, listed as enbrel, 4 mg/kg) is reported as 53%. The “clinical signs of disease progression (arthritic score) (in words)” value (“clinical signs of disease progression” below) [1] was “Reductions in clinical signs of disease progression; also recorded: reduction” and the “clinical signs of disease progression” value [2] was “no effect on disease progression”.

B1: Ang-1: angiopoietin, ligand of Tie2 (protein, UniProt Q15389 16-498, looked up)
Angiopoietin-1: HIGCSNQRRSPENSGRRYNRIQHGQCAYTFILPEHDGNCRESTTDQYNTNALQRDAPHVEPDFSSQKLQHLEHVMENYTQWLQKLENYIVENMKSEMAQIQQNAVQNHTATMLEIGTSLLSQTAEQTRKLTDVETQVLNQTSRLEIQLLENSLSTYKLEKQLLQQTNEILKIHEKNSLLEHKILEMEGKHKEELDTLKEEKENLQGLVTRQTYIIQELEKQLNRATTNNSVLQKQQLELMDTVHNLVNLCTKEGVLLKGGKREEEKPFRDCADVYQAGFNKSGIYTIYINNMPEPKKVFCNMDVNGGGWTVIQHREDGSLDFQRGWKEYKMGFGNPSGEYWLGNEFIFAITSQRQYMLRIELMDWEGNRAYSQYDRFHIGNEKQNYRLYLKGHTGTAGKQSSLILHGADFSTKDADNDNCMCKCALMLTGGWWFDACGPSNLNGMFYTAGQNHGKLNGIKWHYFKGPSYSLRSTTMMIRPLDF
In the case of B1, the Kd (Tie2) is listed as 3 nM.

B2: MEDI1/5: anti-Ang-2 antibody with MEDI1 light chain (SEQ ID No. 3) and MEDI5 heavy chain (SEQ ID No. 7); isotype not stated (antibody)
VH: QVQLVESGGGVVQPGRSLRLSCAASGFTFTNYGMHWVRQAPGKGLEWVAVISHDGNNKYYVDSVKGRFTISRDNSKNTLYLQMNSLRAEDTAVYYCAREGIDFWSGLNWFDPWGQGTLVTVSS
light: EIVLTQSPGTLSLSPGERATLSCRASQSITGSYLAWYQQKPGQAPRLLITGASSWATGIPDRFSGSGSGTDFTLTISRLEPEDFAVYYCQQYSSSPITFGQGTRLEIKRTVAAPSVFIFPPSDEQLKSGTASVVCLLNNFYPREAKVQWKVDNALQSGNSQESVTEQDSKDSTYSLSSTLTLSKADYEKHKVYACEVTHQGLSSPVTKSFNRGEC
In the case of B2, the “vessels in plugs, hematoxylin and eosin staining (in words)” value ([3]; FGF2+MEDI1/5 plugs vs FGF2 plugs alone) is reported as “fewer vessels; also recorded: lower level of vascularization”, the “amount of FITC-dextran present in plugs” value ([3]; MEDI1/5 1, 10, and 20 mg/kg i.p., 3 doses, FGF2 1 μg/ml plugs (FGF2 alone approximately 0.78 μg)) is reported as 0.05 to 3 µg and the “FITC-dextran content / angiogenesis in plugs (in words)” value ([3]; MEDI1/5 1, 10 or 20 mg/kg i.p., vs FGF2 plugs) is reported as “significant reduction in FITC-dextran; also recorded: significant reduction in angiogenesis”. For the same molecule, the “binding profile for Ang-2 compared to 3.19.3 (in words)” value (Ang-2) was “very similar binding profile”, the “extent of retina vasculature (in words)” value (retinal angiogenesis; MEDI1/5 0.3 mg/kg) was “extend to the outer edge of retina” and the “retinal angiogenesis (in words)” value (retinal angiogenesis; MEDI1/5 0.3, 1.0 and 10 mg/kg i.p. at p1, p3, p5, retinas at p10) was “dose-dependent inhibition of retinal angiogenesis; also recorded: inhibited in a dose-dependent fashion”. For the same molecule, the “% Disease free joints” value ([1]; 10 mg/kg MEDI1/5, 10 mg/ml Isotype control (so in the source), 10 mg/kg) was 31%, the “clinical signs of disease progression” value [1] was “Reductions in clinical signs of disease progression; also recorded: reduction” and the “clinical signs of disease progression” value [2] was “modest reductions in clinical signs of disease progression”.
